B1: Broad substrate specificity ATP-binding cassette transporter ABCG2 (Homo sapiens), Q9UNQ0 (parent)
chain: MSSSNVEVFIPVSQGNTNGFPATASNDLKAFTEGAVLSFHNICYRVKLKSGFLPCRKPVEKEILSNINGIMKPGLNAILGPTGGGKSSLLDVLAARKDPSGLSGDVLINGAPRPANFKCNSGYVVQDDVVMGTLTVRENLQFSAALRLATTMTNHEKNERINRVIQELGLDKVADSKVGTQFIRGVSGGERKRTSIGMELITDPSILFLDEPTTGLDSSTANAVLLLLKRMSKQGRTIIFSIHQPRYSIFKLFDSLTLLASGRLMFHGPAQEALGYFESAGYHCEAYNNPADFFLDIINGDSTAVALNREEDFKATEIIEPSKQDKPLIEKLAEIYVNSSFYKETKAELHQLSGGEKKKKITVFKEISYTTSFCHQLRWVSKRSFKNLLGNPQASIAQIIVTVVLGLVIGAIYFGLKNDSTGIQNRAGVLFFLTTNQCFSSVSAVELFVVEKKLFIHEYISGYYRVSSYFLGKLLSDLLPMRMLPSIIFTCIVYFMLGLKPKADAFFVMMFTLMMVAYSASSMALAIAAGQSVVSVATLLMTICFVFMMIFSGLLVNLTTIASWLSWLQYFSIPRYGFTALQHNEFLGQNFCPGLNATGNNPCNYATCTGEEYLVKQGIDLSPWGLWKNHVALACMIVIFLTIAYLKLLFLKKYS

Variants of: B1
Details: with ubc_human UBC

effect of a mutation on the interaction	Variant
increasing interaction	N596Q

Reference: IntAct's records for PubMed 19909340
